The record followed here is PMC4865318 (Molecular Biology of the Cell, 2016).

Experiment [1] concerns the target T1, MBP-UNC-15 (221–873) (C. elegans, UniProt P10567 221-872).
T1 sequence (looked up): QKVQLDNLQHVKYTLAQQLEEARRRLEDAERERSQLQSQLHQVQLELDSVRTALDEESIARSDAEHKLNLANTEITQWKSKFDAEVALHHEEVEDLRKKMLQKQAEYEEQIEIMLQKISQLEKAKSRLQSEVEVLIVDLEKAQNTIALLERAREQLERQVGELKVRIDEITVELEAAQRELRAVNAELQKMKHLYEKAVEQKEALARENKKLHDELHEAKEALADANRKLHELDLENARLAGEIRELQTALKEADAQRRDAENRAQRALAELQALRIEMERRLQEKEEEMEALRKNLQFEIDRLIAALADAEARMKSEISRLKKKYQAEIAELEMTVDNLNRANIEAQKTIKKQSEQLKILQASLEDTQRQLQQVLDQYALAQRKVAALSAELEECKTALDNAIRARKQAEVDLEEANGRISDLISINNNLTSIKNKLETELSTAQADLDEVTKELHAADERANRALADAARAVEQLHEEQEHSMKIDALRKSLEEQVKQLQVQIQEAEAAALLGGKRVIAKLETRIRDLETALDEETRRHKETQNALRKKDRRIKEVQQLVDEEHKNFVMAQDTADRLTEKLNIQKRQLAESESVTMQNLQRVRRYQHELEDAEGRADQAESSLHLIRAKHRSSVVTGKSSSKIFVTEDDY
Briefly: far-Western.

Experiment [2] has as its target T2, MBP-UNC-15 (294–376) (C. elegans, UniProt P10567 294-376).
T2 sequence (looked up): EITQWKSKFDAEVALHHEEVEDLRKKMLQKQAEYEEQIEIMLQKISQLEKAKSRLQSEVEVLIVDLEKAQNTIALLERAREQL
Briefly: BLI. A general note: Biolayer interferometry detects binding as a change in optical thickness at a sensor tip.

B1: GST-UNC-89 (1–151) (domain or fragment, C. elegans, UniProt O01761 1-151, looked up)
chain: MASRRQKQFDRKYSSYRKFTATEDVNYSTHSSRSSYRSESLTSRTDGRGRSTSSEIIAGSESRSYPVYIAIQDYTPDKEDVEAIPLEQGQIVEVLDKKNSVRWLVRTKARPPRSGWVPGSYFETPTEFYKQRRRTREIENVSLSDEQAALV
B1: the binding result in experiment [1] is “binds”.

B2: GST-UNC-89 (1–500) (domain or fragment, C. elegans, UniProt O01761 1-500, looked up)
chain: MASRRQKQFDRKYSSYRKFTATEDVNYSTHSSRSSYRSESLTSRTDGRGRSTSSEIIAGSESRSYPVYIAIQDYTPDKEDVEAIPLEQGQIVEVLDKKNSVRWLVRTKARPPRSGWVPGSYFETPTEFYKQRRRTREIENVSLSDEQAALVKRDQVYHELLRSEEEFVSSLRTCVDDYIKVLDDPEVPEAVKKNREELTLNIPELYNFHANVMLKGLNYYSDDPGKVGQTFVRLEKDFESHVEFYKQYADTLKLLEEPEIKRFFEGLSAKNDAGASSFVDHVKEIADRMVQYQNYFKEFVKYSARAHGSSKSIQKALELVTTIPQRVHDLEFTNNLKQHPGDTGKLGRIIRHDAFQVWEGDEPPKLRYVFLFRNKIMFTEQDASTSPPSYTHYSSIRLDKYNIRQHTTDEDTIVLQPQEPGLPSFRIKPKDFETSEYVRKAWLRDIAEEQEKYAAERDAISMTATSEMTASSVDFDMNASDQQSEFSEWSGSRKSSLFPG
Regarding B2, in experiment [1], the binding result is listed as “binds”.

B3: GST-UNC-89 (58–131) (domain or fragment, C. elegans, UniProt O01761 58-131, looked up)
chain: AGSESRSYPVYIAIQDYTPDKEDVEAIPLEQGQIVEVLDKKNSVRWLVRTKARPPRSGWVPGSYFETPTEFYKQ
As to B3, in experiment [2], the Kd turned out to be 1100 nM, the koff turned out to be 0.00015 s⁻¹ and the kon was 143 M⁻¹ s⁻¹.

Broadly, the Kd is the constant that tells how readily two partners part at equilibrium. High values mean weaker binding, low ones tighter binding. Broadly, the koff is a measure of how fast the partners let go of each other. In general, kon refers to a measure of how fast the partners come together. High values mean faster complex formation, low ones slower complex formation.
